Assay results reported in the supplement of paper PMC7125110.
± gives the standard error. Fewer inactive variants are shown than the library holds.

B1: glmS ribozyme (parent)
chain: AUAAAAGCGCCAGAACUACAGAAAUGUAGUUGACGAGGAGGAGGUUUAUCGAAUUUUCGGCGGAUGCCUCCAAA

Key:
Details in all cases: with glucosamine-6-phosphate
[1] = variants of: B1; assay: self-cleavage kobs at 40 uM GlcN6P; higher = faster cleavage; RNA array
Method in brief: (§1)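 Sequenced MiSeq chips were the platform: E. coli RNA polymerase transcribed barcoded ribozyme variants on them in situ, and a hybridised Cy3 probe tracked these at 37 °C. After glucosamine-6-phosphate (40 μM to 10 mM) in HEPES/KCl/Mg(OAc)2 buffer was flowed in, tiles were imaged over ~14 h. Signals normalised to baseline and to non-cleaving reference variants were reduced to per-tile medians and fit to one- or two-exponential decays to obtain kobs. kcat and KM were derived through weighted Michaelis–Menten fits across concentrations.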

[2] = variants of: B1; assay: self-cleavage kobs at 160 uM GlcN6P; higher = faster cleavage; RNA array
Method in brief: as §1

[3] = variants of: B1; assay: self-cleavage kobs at 640 uM GlcN6P; higher = faster cleavage; RNA array
Method in brief: as §1

[4] = variants of: B1; assay: self-cleavage kobs at 2500 uM GlcN6P; higher = faster cleavage; RNA array
Method in brief: as §1

[5] = variants of: B1; assay: self-cleavage kobs at 10000 uM GlcN6P; higher = faster cleavage; RNA array
Method in brief: as §1

Variant	self-cleavage kobs at 40 uM GlcN6P [1]	self-cleavage kobs at 160 uM GlcN6P [2]	self-cleavage kobs at 640 uM GlcN6P [3]	self-cleavage kobs at 2500 uM GlcN6P [4]	self-cleavage kobs at 10000 uM GlcN6P [5]
A15G A36C C68G	6.45e-05 ± 2.9e-05 s⁻¹				
A6G U46A	< 1e-05 s⁻¹	< 1e-05 s⁻¹			
C50G C67U C68U C71U	0.000172 ± 4.1e-05 s⁻¹		0.000393 ± 0.00011 s⁻¹	0.000127 ± 3e-05 s⁻¹	7.29e-05 ± 1.3e-05 s⁻¹
A12U G38A G41A A64G	< 1e-05 s⁻¹				< 1e-05 s⁻¹
U45A C68A	< 1e-05 s⁻¹	< 1e-05 s⁻¹	< 1e-05 s⁻¹	3.91e-05 ± 1.9e-05 s⁻¹	
C11A A15G C58G C68A	8.59e-05 ± 2.2e-05 s⁻¹				0.000145 ± 2.6e-05 s⁻¹
A14U G29C G38U C50G	0.000223 ± 7.2e-05 s⁻¹				7.38e-05 ± 1.8e-05 s⁻¹
C11U G38U A52U	< 1e-05 s⁻¹	< 1e-05 s⁻¹	< 1e-05 s⁻¹		< 1e-05 s⁻¹
G63A U65G G66U	< 1e-05 s⁻¹			< 1e-05 s⁻¹	< 1e-05 s⁻¹
A14G U56C C61G	< 1e-05 s⁻¹				< 1e-05 s⁻¹
U46G C50G	4.21e-05 ± 9.2e-06 s⁻¹	7.37e-05 ± 1.5e-05 s⁻¹	4.09e-05 ± 1.3e-05 s⁻¹		2.21e-05 ± 7.3e-06 s⁻¹
A14G G37A A42U U69A	0.000165 ± 2.5e-05 s⁻¹		0.00196 ± 0.00035 s⁻¹		0.0157 ± 0.0032 s⁻¹
G7A U30G U45G C67G C68A	0.000126 ± 4e-05 s⁻¹				0.00014 ± 3.6e-05 s⁻¹
G41U U49C C61G	< 1e-05 s⁻¹				< 1e-05 s⁻¹
C58U U65G	< 1e-05 s⁻¹	< 1e-05 s⁻¹	< 1e-05 s⁻¹		
A1G C34U A52U	< 1e-05 s⁻¹				
A12G A48U	< 1e-05 s⁻¹	< 1e-05 s⁻¹			2.34e-05 ± 7.6e-06 s⁻¹
G60C A64C	< 1e-05 s⁻¹	< 1e-05 s⁻¹	< 1e-05 s⁻¹	< 1e-05 s⁻¹	< 1e-05 s⁻¹
A6C G32C C58G	< 1e-05 s⁻¹		< 1e-05 s⁻¹	< 1e-05 s⁻¹	
U55G G60U	< 1e-05 s⁻¹	< 1e-05 s⁻¹	< 1e-05 s⁻¹	< 1e-05 s⁻¹	
C8G U56A	< 1e-05 s⁻¹		< 1e-05 s⁻¹	< 1e-05 s⁻¹	
A12C U56A A64C	< 1e-05 s⁻¹		9.73e-05 ± 3.4e-05 s⁻¹		
G43U A48G C70G	< 1e-05 s⁻¹				< 1e-05 s⁻¹
C8U A48G C70U	< 1e-05 s⁻¹		< 1e-05 s⁻¹		< 1e-05 s⁻¹

Variant	self-cleavage kobs at 40 uM GlcN6P [1]	self-cleavage kobs at 160 uM GlcN6P [2]	self-cleavage kobs at 640 uM GlcN6P [3]	self-cleavage kobs at 2500 uM GlcN6P [4]	self-cleavage kobs at 10000 uM GlcN6P [5]
A6G U31G C34G	< 1e-05 s⁻¹		< 1e-05 s⁻¹		< 1e-05 s⁻¹
A6C U49A G51U	< 1e-05 s⁻¹				< 1e-05 s⁻¹
C8A A33U G40A A64G C68A	< 1e-05 s⁻¹		< 1e-05 s⁻¹	< 1e-05 s⁻¹	< 1e-05 s⁻¹
C10A U57C	< 1e-05 s⁻¹	< 1e-05 s⁻¹			
A12C C16G	8.16e-05 ± 1.1e-05 s⁻¹	0.000158 ± 3.6e-05 s⁻¹	0.00067 ± 0.00012 s⁻¹	0.00161 ± 0.00035 s⁻¹	0.00517 ± 0.00083 s⁻¹
G7U C8G G32C U56G C61A	< 1e-05 s⁻¹			< 1e-05 s⁻¹	
U46C G59U	< 1e-05 s⁻¹	< 1e-05 s⁻¹			
G35C C61U G62A	< 1e-05 s⁻¹				< 1e-05 s⁻¹
A6C G40U A42C U45A G59C C61G A64U	< 1e-05 s⁻¹			< 1e-05 s⁻¹	
G13C G35C A39U	< 1e-05 s⁻¹				
U30G C61U	< 1e-05 s⁻¹		< 1e-05 s⁻¹	< 1e-05 s⁻¹	
A15G G41A U57G	< 1e-05 s⁻¹				
A12G A36U C50G C70U C71U	0.000102 ± 4.6e-05 s⁻¹				5.91e-05 ± 1.9e-05 s⁻¹
C11U G51A	< 1e-05 s⁻¹			< 1e-05 s⁻¹	
G7A U56G	< 1e-05 s⁻¹		< 1e-05 s⁻¹		
U46A G51U	< 1e-05 s⁻¹	< 1e-05 s⁻¹	< 1e-05 s⁻¹	< 1e-05 s⁻¹	< 1e-05 s⁻¹
U30G A39G	0.000352 ± 8.4e-05 s⁻¹	0.000654 ± 0.00021 s⁻¹	0.00235 ± 0.00063 s⁻¹	0.00681 ± 0.0014 s⁻¹	0.0183 ± 0.007 s⁻¹
A6G C8G G40A	< 1e-05 s⁻¹				< 1e-05 s⁻¹
A6C A42G	< 1e-05 s⁻¹	< 1e-05 s⁻¹		6.82e-05 ± 1.8e-05 s⁻¹	9.6e-05 ± 1.1e-05 s⁻¹
U54G U55A	0.00109 ± 0.00018 s⁻¹				0.0495 ± 0.015 s⁻¹
A33U G44U	< 1e-05 s⁻¹	< 1e-05 s⁻¹	< 1e-05 s⁻¹		< 1e-05 s⁻¹
A33C A39G G41C A53C	< 1e-05 s⁻¹	< 1e-05 s⁻¹	< 1e-05 s⁻¹	< 1e-05 s⁻¹	< 1e-05 s⁻¹
C34G A36U U46A A52G C71A	< 1e-05 s⁻¹	< 1e-05 s⁻¹	< 1e-05 s⁻¹		< 1e-05 s⁻¹
A36G U56C	< 1e-05 s⁻¹	< 1e-05 s⁻¹	< 1e-05 s⁻¹	< 1e-05 s⁻¹	

Variant	self-cleavage kobs at 40 uM GlcN6P [1]	self-cleavage kobs at 160 uM GlcN6P [2]	self-cleavage kobs at 640 uM GlcN6P [3]	self-cleavage kobs at 2500 uM GlcN6P [4]	self-cleavage kobs at 10000 uM GlcN6P [5]
C10G A33U G35U G60U	< 1e-05 s⁻¹				< 1e-05 s⁻¹
C16G G51C U55A U65A	< 1e-05 s⁻¹			< 1e-05 s⁻¹	< 1e-05 s⁻¹
C10A G41U G44U	< 1e-05 s⁻¹	< 1e-05 s⁻¹	< 1e-05 s⁻¹	< 1e-05 s⁻¹	
C8G U31A U57A	< 1e-05 s⁻¹			< 1e-05 s⁻¹	< 1e-05 s⁻¹
C11A C61U C70U	< 1e-05 s⁻¹				< 1e-05 s⁻¹
C34G U55C	< 1e-05 s⁻¹	< 1e-05 s⁻¹	< 1e-05 s⁻¹	< 1e-05 s⁻¹	< 1e-05 s⁻¹
C8U G29A G40U U45A	< 1e-05 s⁻¹				< 1e-05 s⁻¹
G63C G66C	< 1e-05 s⁻¹	< 1e-05 s⁻¹	< 1e-05 s⁻¹	< 1e-05 s⁻¹	< 1e-05 s⁻¹
C34U A52G C68G	0.000541 ± 0.00018 s⁻¹				0.000197 ± 6e-05 s⁻¹
A33C A36C	< 1e-05 s⁻¹			< 1e-05 s⁻¹	
G9U G32A A53C U55G G63U	< 1e-05 s⁻¹				
C34G G44C	< 1e-05 s⁻¹		< 1e-05 s⁻¹	< 1e-05 s⁻¹	< 1e-05 s⁻¹
G29U G63C	< 1e-05 s⁻¹		< 1e-05 s⁻¹		< 1e-05 s⁻¹
U46C U47C C58G	< 1e-05 s⁻¹		< 1e-05 s⁻¹		
C34A U57G G63C C71U	< 1e-05 s⁻¹		< 1e-05 s⁻¹	< 1e-05 s⁻¹	
U31G A36C C61U	< 1e-05 s⁻¹				< 1e-05 s⁻¹
A12G G40U U54G	< 1e-05 s⁻¹				0.000231 ± 6e-05 s⁻¹
A48G A53G C68G	6.75e-05 ± 2.2e-05 s⁻¹				5.82e-05 ± 1.7e-05 s⁻¹
G38U A39G G43U G44C	< 1e-05 s⁻¹				< 1e-05 s⁻¹
C11G U54A	< 1e-05 s⁻¹				
A12C U31C A39C U57G C67A	< 1e-05 s⁻¹				< 1e-05 s⁻¹
G35C U46G	< 1e-05 s⁻¹	< 1e-05 s⁻¹	< 1e-05 s⁻¹	< 1e-05 s⁻¹	< 1e-05 s⁻¹
G7C G60U	< 1e-05 s⁻¹	< 1e-05 s⁻¹		< 1e-05 s⁻¹	< 1e-05 s⁻¹
C8G C68G	< 1e-05 s⁻¹	< 1e-05 s⁻¹			< 1e-05 s⁻¹

Variant	self-cleavage kobs at 40 uM GlcN6P [1]	self-cleavage kobs at 160 uM GlcN6P [2]	self-cleavage kobs at 640 uM GlcN6P [3]	self-cleavage kobs at 2500 uM GlcN6P [4]	self-cleavage kobs at 10000 uM GlcN6P [5]
A14U G37A G43U C68G C70G	< 1e-05 s⁻¹				
C16U U31A A36G	< 1e-05 s⁻¹				
C8U G41C	< 1e-05 s⁻¹		< 1e-05 s⁻¹		< 1e-05 s⁻¹
A14C U54A	0.00014 ± 2.7e-05 s⁻¹		0.00123 ± 0.00021 s⁻¹	0.0023 ± 0.0005 s⁻¹	0.00985 ± 0.0024 s⁻¹
G35C U65A	< 1e-05 s⁻¹		< 1e-05 s⁻¹		< 1e-05 s⁻¹
C61U G62C	< 1e-05 s⁻¹		< 1e-05 s⁻¹	< 1e-05 s⁻¹	< 1e-05 s⁻¹
U56C C61U C71U	< 1e-05 s⁻¹				
C10G G29A A48G	< 1e-05 s⁻¹				
G60A G62C	< 1e-05 s⁻¹	< 1e-05 s⁻¹		< 1e-05 s⁻¹	
G7A U47A	< 1e-05 s⁻¹	< 1e-05 s⁻¹			
G13U A33G	< 1e-05 s⁻¹	< 1e-05 s⁻¹	< 1e-05 s⁻¹	< 1e-05 s⁻¹	< 1e-05 s⁻¹
G37U G40U U46G U54C	< 1e-05 s⁻¹	< 1e-05 s⁻¹	< 1e-05 s⁻¹	< 1e-05 s⁻¹	< 1e-05 s⁻¹
U47G U56A C58U A64G U69A C70A	5.21e-05 ± 2.2e-05 s⁻¹				3.66e-05 ± 1.4e-05 s⁻¹
G7U C16G A36C A42C A52G	< 1e-05 s⁻¹				
G29C C67U	2.43e-05 ± 8.3e-06 s⁻¹		0.000126 ± 1.3e-05 s⁻¹	0.000201 ± 2.6e-05 s⁻¹	0.000975 ± 0.0002 s⁻¹
A52C G60C	< 1e-05 s⁻¹	< 1e-05 s⁻¹	< 1e-05 s⁻¹	< 1e-05 s⁻¹	< 1e-05 s⁻¹
A33U C50G C61A	0.000105 ± 2e-05 s⁻¹				0.000139 ± 2.7e-05 s⁻¹
A12G G59A	< 1e-05 s⁻¹	< 1e-05 s⁻¹			2.34e-05 ± 1.1e-05 s⁻¹
A6C U31G G32A G41U	< 1e-05 s⁻¹				
A6G U31C C71U	< 1e-05 s⁻¹				
G9U C34U	< 1e-05 s⁻¹		< 1e-05 s⁻¹	< 1e-05 s⁻¹	< 1e-05 s⁻¹
G41A C50U G59A	< 1e-05 s⁻¹				< 1e-05 s⁻¹
G7C A14G G38C U54G	< 1e-05 s⁻¹				
